What was measured:
[1] = system: mouse tracheal epithelium cells (MTEC); test: Nitrite in MTEC supernatants, Griess reaction; type: cell-based; conditions: PBS, 0.1 ng/mL LPS or 100 nM rFIZZ1; any measured time point; N=3
Protocol: MTEC culture was performed by following the protocol of You et al. (“Growth and differentiation of mouse tracheal epithelial cells: selection of a proliferative population,” Am J Physiol Lung Cell Mol Physiol, 2002, 283:L 1315-1321) with minor modification. Briefly, tracheas were incubated in 1.5 mg/mL pronase (Roche Molecular Biochemicals) for 18 h at 4° C. Cells were treated with 0.5 mg/mL crude pancreatic DNase I (Sigma-Aldrich) on ice for 5 min. After incubation in tissue culture plates for 3-4 h in 5% CO2 at 37° C., nonadherent cells were incubated in a plate coated with type I rat tail collagen (BD Biosciences) in modified BEBM (Lonza, Md. USA) containing 10 μg/ml insulin, 5 μg/ml transferrin, 25 ng/ml epidermal growth factor, 5 μg/ml epinephrine and 30 μg/ml bovine pituitary extract, 0.5 nM Hydrocortisone, 25 ng/ml hEGF, 15 nM Triiodothyronine, 0.25 μg/ml Gentamicin/amphotericin-B and 0.01 μM retinoic acid in 5% CO2 at 37° C. […]
Nitric oxide (NO) was examined by measuring an end product, nitrite, using the Griess reaction (Xu et al., “Arginase and autoimmune inflammation in the central nervous system,” Immunology, 2003; 110:141-148). […] Absorbance was read at 540 nm in an automated microplate reader. […]

[2] = system: MLCK, MLC-20, α-actin, G proteins, c-Raf/ERK1/2/p38 MAPK in trachea; test: Western blot of protein expression in treated trachea; type: cell-based, mouse
Protocol: PBS- and FIZZ1-treated trachea were cultured in DMEM overnight for Western blot analysis. Treated and untreated trachea were harvested and homogenized separately in lysis buffer containing 20 mM […], 2.0 mM EGTA, 5.0 mM EDTA, 30 mM sodium fluoride, 40 mM β-glycerophosphate, 20 mM sodium orthovanadate, 1.0 mM phenylmethylsulfonyl-fluoride, 3.0 mM benzamidine, 5 μM pepstatin A, 10 μM leupeptin and 0.5% Triton X-100 at pH 7.2 (KINEXUS, Canada). Tissue supernatants were centrifuged (15,000×g) for 60 min at 4° C. and protein concentrations in the cleared supernatant of homogenized trachea and BAL were examined by bicinchoninic acid assay (BCA) (Pierce Biotechnology, Rockford, Ill.). Absorbance of total protein from each group was measured spectrophotometrically at an optical density of 562 nm and different concentrations of bovine serum albumin (BSA) were applied as a standard curve. Proteins concentrations (μg/ml) were quantified with the standard curve of BSA using BCA assay. Samples were stored at −70° C. until use.
Protein expression levels of were examined using Western blot analysis. Briefly, aliquots (100 μg/well) of BAL supernatant and tracheal lysate were loaded onto 4-20% SDS-PAGE gel in an equal volume. Size-fractionated proteins were transferred to nitrocellulose membrane and then blocked with 5% nonfat dried milk in TBS at room temperature for 60 min. The membrane was individually incubated with primary antibodies to either FIZZ1 (Rabbit anti-mouse FIZZ1, Antigenix America Inc., USA), MLCK, MLC-20, α-actin, Giα1,2, Ggα11, β-actin (Sigma, USA), Gα12/13 (Santa Cruz Biotechnology, Inc., USA), c-Raf, phospho-c-Raf, ERK1/2, phospho-ERK1/2, p38 MAPK or phospho-p38 MAPK (Cell Signaling, Inc., USA) at 4° C. overnight, washed three times with TBS and then incubated with peroxidase-conjugated secondary antibodies for another 60 min. The blot was washed 3 times with TBS and a mixture of Western Blotting Detection Reagent I and II (GE Healthcare Life Sciences, Piscataway, N.J.) was poured on the membrane with gentle agitation for 1 min at room temperature. Immunoreactive bands were detected by chemiluminesence. Protein expression levels were evaluated in relative to expression of β-actin in the same tissue. Quantification of Western blots for phosphorylated signaling proteins was performed using ImageJ and relative band intensity was calculated as % of the intensity of the β-actin protein band.

[3] = 24 hours after rFIZZ1 treatment vs PBS, n=3
[4] = FIZZ1-treated vs PBS-treated trachea, relative to β-actin

B1: rFIZZ1: recombinant FIZZ1 (Leinco Technologies), mouse FIZZ1 protein, resistin-like molecule-α (protein, listed as Mus musculus)
chain: MKTTTCSLLICISLLQLMVPVNTDETIEIIVENKVKELLANIPANYPSTVTKTLSCTSVKTMNRWASCPAGMTATGCACGFACGSWEIQSGDTCNCLCLLV
modifications: (1)..(101) Murine FIZZ1 polypeptide
B1 was tested, and the “changes in nitrite concentration in MTEC supernatants” value [1] was “not obvious”, the “protein expression levels for α-actin and G proteins (Giα1,2, Gqα11, Gα12/13)” value ([2]; 100 nM rFIZZ1- vs PBS-treated trachea, normalized to β-actin) was “similar” and the “level of phosphorylation of c-Raf, ERK1/2 and p38 MAPK, kinetic profile” value ([2]; 100 nM rFIZZ1, greatly increasing only between 16 and 32 hours) was “marked time-dependent increase”. For the same molecule, the “expression of phospho-ERK1/2” value [2, 3] was “increased”, the “expression of phospho-c-Raf” value [2, 3] was “increased” and the “expression of phospho-p38 MAPK” value [2, 3] was “increased”. The “expression of unphosphorylated c-Raf” value ([2]; 24 hours, FIZZ1 vs PBS-cultured trachea) was “slightly increased”, the “expression of MLC-20” value [2, 4] was “increase” and the “expression of MLCK” value [2, 4] was “increase”.

From US20090274696A1, “METHODS FOR TREATING INFLAMMATION” (WYETH, priority 2008, published 2009)
